# B1: OR4K15 (parent)
# chain: GUUAACGGUCAUAGGCCAUGGAAACUAGGAGCACCAUUUCGCUGCCAGUGAAGAAAUGAACAAAGAAAAUCUGGGCCAGGCAGGCAUCAAAAGAAAUAGUCUUGCGCUCAACCAGAAAGUCUGUAAUCAUUUUAAGGGUA
# Variants of: B1
# Test: self-cleavage, relative activity (ratio to wild type); higher = more cleavage; in vitro, sequencing; the parent is a self-cleaving ribozyme
row,Variant,self-cleavage
1,A78G U139C,0.24
2,C16U A82U,0.21
3,C112A A125G,0.01
4,A69G U87C,1.66
5,A92G U132C,1.35
6,U72G A95U,0.12
7,C77U A98G,0.88
8,U38G A62G,1.59
9,C17G G79A,0.18
10,A5U U12A,0.69
11,A52C A117G,1.22
12,C6U A52G,0.59
13,A4G A114C,0.17
14,A24U A66G,1.66
15,U3C U130A,1.27
16,U9C C88U,1.34
17,U103A U120C,0.34
18,A89C U139C,1.52
19,A69G U132A,0.69
20,A13U A52U,1.26
21,U127G,1.32

row,Variant,self-cleavage
1,A91G U102C,1.94
2,U9A U122A,1.22
3,G65A A126G,1.12
4,G1U A92G,1.91
5,U2C U19A,1.16
6,U87A A129C,0.8
7,A54G A78U,0.26
8,A30C A51U,2.04
9,U19A A91C,1.85
10,A36G G99A,0.74
11,A51U U130C,1.62
12,A30G U72C,0.24
13,U9C G75A,0.08
14,G41A A114G,0.75
15,A24G A82G,0.67
16,A62G U133A,1.51
17,U87G,0.74
18,A24G A90C,0.33
19,A114G G138C,0.31
20,A60G U70G,1.65
21,A51C U127C,1.02

row,Variant,self-cleavage
1,A67U U130C,1.04
2,C112U A129G,0.01
3,A86G A110G,0.16
4,G73U A126G,0.07
5,A11G A91G,0.73
6,A23C C76A,0.13
7,A63G A111C,0.02
8,G58A A117G,1.66
9,U2C A30C,1.44
10,C42U A60G,1.17
11,U12C A22U,0.66
12,A111G C112G,0
13,A91U A126U,1.56
14,U102C C107G,0.01
15,A89G G99A,1.15
16,A62U U72C,0.19
17,A96G U100A,0.78
18,A56G A89U,1.09
19,A22G A63U,1.15
20,A110G G136A,0.09
21,U49A A67G,1.13

row,Variant,self-cleavage
1,A62U A96G,1.69
2,A63G U131G,1.99
3,A95C A116G,0.74
4,A30U A140G,0.96
5,A22G U120A,1.22
6,U39A A86C,1.21
7,A22U U72C,0.04
8,C88A U102A,0.58
9,A18G A52G,1.67
10,G106U A129G,0.01
11,U19C A129U,1.39
12,G14U C105U,0.07
13,U57C G73A,0.15
14,U9G A117C,0.41
15,C81A G104A,0.67
16,G79C U97A,0.05
17,U100C A117U,1.45
18,A52G U72C,0.27
19,A82U A95C,0.12
20,U70A U103A,0.67
